Experiment [1] has as its target T1, human serum albumin (HSA) (human, UniProt P02768 25-609).
T1 construct: The assays used bought HSA (Sigma #A37812 in the SPR work); also called HuSA
In words: SPR (Biacore 8K): HSA amine-coupled on a CM5 chip, AFFIMER as analyte, pH 6.0, 1:1 Langmuir fit. The method, then:
(§1) For the HSA binding kinetic analysis, HSA (Sigma #A37812) was immobilized on a CM5 chip surface using amine coupling in 10 mM sodium acetate (pH 5.0) (Cytvia). […] The chip surface was regenerated with 3 mM NaOH for 20 seconds at a flow rate of 20 μl/min. The kinetic data was blank subtracted and fit to a 1:1 Langmuir binding model (BIAcore evaluation software; Cytiva).
(SPR reads the build-up and loss of mass on a sensor chip optically.)

Experiment [2] addresses T2, PD-L1 on cells (NCI-H441 cells; aAPC PD-L1/CHO-K1 cells, Promega) (human, UniProt Q9NZQ7 19-290).
T2 construct: whole, on cells; also called human PD-L1-expressing CHO-K1 cells; H441 cells endogenously expressing PD-L1
Nature of the experiment: flow cytometry on PD-L1 expressing cells. For orientation: Flow cytometry measures light scatter and fluorescence of single cells or particles in a stream.

In experiment [3] the target is T1, human serum albumin (HSA). In words: HSA binding ELISA: HSA coated, bound AFFIMER detected with biotinylated anti-cystatin A antibody and streptavidin-HRP. The method, then: Plates were washed and AFFIMER® polypeptides were detected using streptavidin-HRP for 30 min. After the last washing step, the TMB substrate was added for the development of the experiment and plates were read at 450 nm. The EC₅₀ was then calculated using the interpolated non-linear four-parameters standard curve.
(ELISA stands for enzyme-linked immunosorbent assay.)

Experiment [4] has as its target T1, human serum albumin (HSA). Nature of the experiment: SPR (Biacore 8K): HSA amine-coupled on a CM5 chip, AFFIMER as analyte, pH 7.4, 1:1 Langmuir fit. The method, then:
as §1

Experiment [5] has as its target T1, human serum albumin (HSA). Nature of the experiment: SPR (Biacore) kinetics: HSA immobilised on a CM5 chip, AFFIMER as analyte, pH 7.4.
For experiment [6], the target named is T3, human PD-L1-Fc (R&D Systems) (human, UniProt Q9NZQ7 19-239).
T3 construct: Bought reagent; also called huPD-L1-Fc; huPD-L1; not shown: Fc part of the bought fusion
T3 sequence (Q9NZQ7 19-239 limits assumed): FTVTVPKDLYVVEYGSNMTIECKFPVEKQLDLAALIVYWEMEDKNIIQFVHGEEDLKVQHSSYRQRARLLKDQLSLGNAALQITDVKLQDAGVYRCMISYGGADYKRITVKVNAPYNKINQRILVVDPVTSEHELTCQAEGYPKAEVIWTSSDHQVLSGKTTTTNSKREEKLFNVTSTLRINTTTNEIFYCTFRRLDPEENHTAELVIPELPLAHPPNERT
In words: SPR (Biacore) kinetics: human PD-L1-Fc immobilised on a CM5 chip, AFFIMER as analyte.

The target of experiment [7] is T1, human serum albumin (HSA). In words: HSA binding ELISA: HSA coated, anti-cystatin A detection.

T1 sequence (P02768 25-609): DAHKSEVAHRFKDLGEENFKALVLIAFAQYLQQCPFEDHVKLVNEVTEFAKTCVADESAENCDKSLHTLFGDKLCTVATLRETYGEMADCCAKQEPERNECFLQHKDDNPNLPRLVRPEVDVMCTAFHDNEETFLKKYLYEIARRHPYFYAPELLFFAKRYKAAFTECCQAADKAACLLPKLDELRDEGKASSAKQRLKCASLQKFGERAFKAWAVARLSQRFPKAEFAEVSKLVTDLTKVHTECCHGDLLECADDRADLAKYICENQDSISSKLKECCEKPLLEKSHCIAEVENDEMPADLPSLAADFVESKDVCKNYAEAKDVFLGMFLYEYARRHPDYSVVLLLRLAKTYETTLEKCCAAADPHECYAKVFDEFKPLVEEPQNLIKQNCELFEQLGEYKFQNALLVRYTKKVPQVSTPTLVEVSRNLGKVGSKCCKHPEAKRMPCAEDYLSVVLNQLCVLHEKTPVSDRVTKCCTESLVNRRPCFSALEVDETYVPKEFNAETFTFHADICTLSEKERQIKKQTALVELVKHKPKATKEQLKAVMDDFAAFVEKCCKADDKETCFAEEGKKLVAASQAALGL
T2 sequence (Q9NZQ7 19-290): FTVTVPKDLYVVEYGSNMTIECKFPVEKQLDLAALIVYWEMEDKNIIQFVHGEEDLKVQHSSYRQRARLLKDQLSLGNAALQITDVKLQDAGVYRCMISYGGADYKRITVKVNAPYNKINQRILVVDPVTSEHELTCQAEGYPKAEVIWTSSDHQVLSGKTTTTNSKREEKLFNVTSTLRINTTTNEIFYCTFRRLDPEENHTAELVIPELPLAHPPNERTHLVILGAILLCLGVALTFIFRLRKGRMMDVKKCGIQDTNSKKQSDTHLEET

B1: DC XT45 (dimer in-line fusion XT control) (designed binder)
chain: MIPGGLSEAKPATPEIQEIVDKVKPQLEEKTGETYGKLEAVQYKTQVVGGGGGGGGGGTNYYIKVRAGDNKYMHLKVFKSLGGGGGGGGGEDLVLTGYQVDKNKDDELTGFAEAAAKEAAAKEAAAKEAAAKEAAAKEAAAKMIPRGLSEAKPATPEIQEIVDKVKPQLEEKTNETYGKLEAVQYKTQVLANFFQRRWPGSTNYYIKVRAGDNKYMHLKVFNGPWKFRNTDRGADRVLTGYQVDKNKDDELTGF
For orientation: Kd means the concentration at which binding is half-saturated. For orientation: koff means a measure of how fast the partners let go of each other. A low value points to slow dissociation. In general, kon refers to the rate constant with which the complex forms. A lower kon goes with slow association. Usually EC50 stands for the midpoint of the concentration-response curve. A lower EC50 goes with a more potent agent. Consider B1, for which, in experiment [1], the dissociation constant Kd was 7.36 nM, the koff stood at 0.00276 s⁻¹ and the kon amounted to 375000 M⁻¹ s⁻¹. For the same molecule, the binding result in experiment [2] is given as “no binding”. In experiment [3], the EC50 was found to be 0.02 nM. For the same molecule, in experiment [4], the Kd turned out to be 1.08 nM, the off-rate constant (koff) is 0.00272 s⁻¹ and the association rate constant (kon) came to 2.52e+06 M⁻¹ s⁻¹.

B2: Clone 80 XT41 (designed binder)
chain: MIPGGLSEAKPATPEIQEIVDKVKPQLEEKTGETYGKLEAVQYKTQVVRRKHFPQWPGTNYYIKVRAGDNKYMHLKVFKSLDLQPREVFQEDLVLTGYQVDKNKDDELTGFGGGGSGGGGSGGGGSGGGGSGGGGSGGGGSMIPRGLSEAKPATPEIQEIVDKVKPQLEEKTNETYGKLEAVQYKTQVLANFFQRRWPGSTNYYIKVRAGDNKYMHLKVFNGPWKFRNTDRGADRVLTGYQVDKNKDDELTGFGGGGSGGGGSGGGGSGGGGSGGGGSGGGGSMIPRGLSEAKPATPEIQEIVDKVKPQLEEKTNETYGKLEAVQYKTQVLANFFQRRWPGSTNYYIKVRAGDNKYMHLKVFNGPWKFRNTDRGADRVLTGYQVDKNKDDELTGF
notes: One Clone 80 and two HSA-41 units joined by flexible (G4S)6 linkers; Made in E. coli; No tag is stated for this construct
As for B2, in experiment [5], the Kd was determined as 0.18 nM, the off-rate constant (koff) is 0.00189 s⁻¹ and the kon was 1.05e+07 M⁻¹ s⁻¹. In experiment [6], this molecule returned a Kd of 0.172 nM, a koff of 0.000212 s⁻¹ and an on-rate constant (kon) of 1.24e+06 M⁻¹ s⁻¹.

B3: Clone 80 XT40 (designed binder)
chain: MIPGGLSEAKPATPEIQEIVDKVKPQLEEKTGETYGKLEAVQYKTQVVRRKHFPQWPGTNYYIKVRAGDNKYMHLKVFKSLDLQPREVFQEDLVLTGYQVDKNKDDELTGFAEAAAKEAAAKEAAAKEAAAKEAAAKEAAAKMIPRGLSEAKPATPEIQEIVDKVKPQLEEKTNETYGKLEAVQYKTQVLANFFQRRWPGSTNYYIKVRAGDNKYMHLKVFNGPWKFRNTDRGADRVLTGYQVDKNKDDELTGFFAEAAAKEAAAKEAAAKEAAAKEAAAKEAAAKMIPGGLSEAKPATPEIQEIVDKVKPQLEEKTGETYGKLEAVQYKTQVVRRKHFPQWPGTNYYIKVRAGDNKYMHLKVFKSLDLQPREVFQEDLVLTGYQVDKNKDDELTGF
notes: HSA-41 sits in the middle position between two Clone 80 units, joined by rigid A(EAAAK)6 linkers; Made in E. coli; No tag is stated for this construct
In the case of B3, in experiment [5], the equilibrium dissociation constant (Kd) turned out to be 1.54 nM, the dissociation rate constant (koff) amounted to 0.00273 s⁻¹ and the on-rate (kon) worked out at 1.77e+06 M⁻¹ s⁻¹. In experiment [6], this molecule had a Kd of 0.0668 nM, a koff of 9.33e-05 s⁻¹ and a kon of 1.4e+06 M⁻¹ s⁻¹.

B4: DC XT46 (trimer in-line fusion XT control) (designed binder)
chain: MIPGGLSEAKPATPEIQEIVDKVKPQLEEKTGETYGKLEAVQYKTQVVGGGGGGGGGGTNYYIKVRAGDNKYMHLKVFKSLGGGGGGGGGEDLVLTGYQVDKNKDDELTGFAEAAAKEAAAKEAAAKEAAAKEAAAKEAAAKMIPGGLSEAKPATPEIQEIVDKVKPQLEEKTGETYGKLEAVQYKTQVVGGGGGGGGGGTNYYIKVRAGDNKYMHLKVFKSLGGGGGGGGGEDLVLTGYQVDKNKDDELTGFAEAAAKEAAAKEAAAKEAAAKEAAAKEAAAKMIPRGLSEAKPATPEIQEIVDKVKPQLEEKTNETYGKLEAVQYKTQVLANFFQRRWPGSTNYYIKVRAGDNKYMHLKVFNGPWKFRNTDRGADRVLTGYQVDKNKDDELTGF
In experiment [1], B4 had a Kd of 1.28 nM, an off-rate constant (koff) of 0.00205 s⁻¹ and a kon of 1.61e+06 M⁻¹ s⁻¹. Besides, the binding result in experiment [2] is given as “no binding”. In experiment [3], this molecule yielded an EC50 of 0.04 nM. In experiment [4], this molecule displayed a Kd of 1.45 nM, a koff of 0.00259 s⁻¹ and an on-rate constant (kon) of 1.79e+06 M⁻¹ s⁻¹.

B5: HSA-41 (anti-serum albumin AFFIMER® polypeptide, monomer) (designed binder)
chain: MIPRGLSEAKPATPEIQEIVDKVKPQLEEKTNETYGKLEAVQYKTQVLANFFQRRWPGSTNYYIKVRAGDNKYMHLKVFNGPWKFRNTDRGADRVLTGYQVDKNKDDELTGF
notes: No tags are stated; also called HSA-41 monomer; XT polypeptide
As to B5, the concentration for a half-maximal effect (EC50) in experiment [7] came to 0.85 nM. In experiment [5], this molecule returned a Kd of 1.07 nM, a dissociation rate constant (koff) of 0.00436 s⁻¹ and a kon of 4.06e+06 M⁻¹ s⁻¹.
